Results reported in PMC12363564, “Modulation of the PTPRS proteoglycan switch by antibodies binding to the membrane-proximal fibronectin-type III domain” (The Journal of Biological Chemistry, 2025).
Like-named read-outs stand apart in the source and are kept apart here.

Columns and labels:
[1] = biological target: T1, C-terminally 6xHis tagged mouse PTPRS (mPTPRS) ECD (mouse, UniProt B0V2N1 30-1257); assay: BLI
T1 chain: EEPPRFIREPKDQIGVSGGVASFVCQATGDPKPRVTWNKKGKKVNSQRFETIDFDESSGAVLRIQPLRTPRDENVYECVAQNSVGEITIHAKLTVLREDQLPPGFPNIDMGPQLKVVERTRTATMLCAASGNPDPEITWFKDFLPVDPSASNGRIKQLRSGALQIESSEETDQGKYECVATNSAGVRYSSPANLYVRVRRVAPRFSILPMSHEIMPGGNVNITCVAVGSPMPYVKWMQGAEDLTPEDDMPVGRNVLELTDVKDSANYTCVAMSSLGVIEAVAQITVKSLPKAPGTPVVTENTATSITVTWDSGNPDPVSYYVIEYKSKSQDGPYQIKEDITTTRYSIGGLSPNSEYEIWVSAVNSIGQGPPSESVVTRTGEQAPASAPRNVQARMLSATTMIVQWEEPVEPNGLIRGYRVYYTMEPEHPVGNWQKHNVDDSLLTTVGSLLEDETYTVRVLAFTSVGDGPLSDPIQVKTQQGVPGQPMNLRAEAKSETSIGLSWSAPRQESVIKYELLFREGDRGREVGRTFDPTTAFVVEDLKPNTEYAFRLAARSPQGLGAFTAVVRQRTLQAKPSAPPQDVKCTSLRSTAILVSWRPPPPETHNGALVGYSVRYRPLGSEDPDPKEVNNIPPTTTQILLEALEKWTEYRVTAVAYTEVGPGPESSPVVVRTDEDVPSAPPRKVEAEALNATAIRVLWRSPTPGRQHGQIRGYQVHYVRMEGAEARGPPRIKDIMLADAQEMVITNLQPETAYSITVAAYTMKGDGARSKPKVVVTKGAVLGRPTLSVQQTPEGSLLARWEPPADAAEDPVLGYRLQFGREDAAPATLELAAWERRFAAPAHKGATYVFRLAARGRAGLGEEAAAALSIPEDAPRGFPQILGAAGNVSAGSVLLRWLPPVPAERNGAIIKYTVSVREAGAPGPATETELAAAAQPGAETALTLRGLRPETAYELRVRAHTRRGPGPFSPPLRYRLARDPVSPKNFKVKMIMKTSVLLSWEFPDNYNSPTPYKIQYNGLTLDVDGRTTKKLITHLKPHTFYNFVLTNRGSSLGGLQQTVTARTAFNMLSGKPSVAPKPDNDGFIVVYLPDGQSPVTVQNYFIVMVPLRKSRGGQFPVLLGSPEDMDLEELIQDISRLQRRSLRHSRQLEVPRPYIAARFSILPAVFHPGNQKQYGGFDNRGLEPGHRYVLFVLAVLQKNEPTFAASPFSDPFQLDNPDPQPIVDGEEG

[2] = biological target: T2, C-terminally 6xHis tagged mouse PTPRS (mPTPRS) ECD (Mus musculus, UniProt B0V2N1); assay: BLI; His-tagged ligand (mPTPRS ECD or hPTPRS Fn9) immobilised on anti-6xHis probes at 100 to 200 nM; antibodies or scFv-Fc fusions as analytes; Gator K buffer (0.02% BSA, 0.002% Tween-20 in PBS, pH 7.4), 37 °C; biphasic (2:1) association model; details: both partners purified
T2 construct: also called mPTPRS ectodomain; PTPRS ectodomain; source: HEK293T, transiently transfected, supernatant; purified (Ni-NTA, HiTrap heparin); not shown: His6, C-terminal, kept

[3] = biological target: T3, 6xHis-tagged hPTPRS Fn9 (residues 1117-1270) (human, UniProt Q13332 1117-1270); assay: BLI
T3 chain: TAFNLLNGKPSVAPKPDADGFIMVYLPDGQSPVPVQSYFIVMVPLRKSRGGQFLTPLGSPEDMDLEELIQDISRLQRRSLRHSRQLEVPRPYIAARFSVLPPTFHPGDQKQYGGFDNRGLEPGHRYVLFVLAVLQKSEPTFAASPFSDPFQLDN

[4] = biological target: T4, PTPRS^Δ1096 (hPTPRS-HA N-terminal truncation lacking the ECD including most of Fn8) (Homo sapiens, UniProt Q13332, point mutant); assay: co-IP; RIPA lysates of HEK293T cells overexpressing HA-tagged full length or truncated hPTPRS incubated with the antibody for 2 h at 4 °C, Protein G Sepharose, anti-HA blot; details: one partner purified
T4 construct: human PTPRS isoform 1, N-terminal truncation lacking the ECD including most of Fn8, obtained from WT hPTPRS-HA by site-directed mutagenesis; source: HEK293T, transfected, in RIPA lysate; not shown: HA, C-terminal, kept

[5] = biological target: T5, WT human PTPRS (hPTPRS) isoform 1 with a C-terminal HA tag (human, UniProt Q13332); assay: as above; details: one partner purified
T5 construct: human PTPRS isoform 1, open reading frame in pcDNA3.1 (+); also called PTPRS-HA; hPTPRS-HA; source: HEK293T, transfected; in RIPA lysate (immunoprecipitation), on or in cells (flow cytometry, PLA); not shown: HA, C-terminal, kept

[6] = biological target: T6, PTPRS^Δ326 (hPTPRS-HA N-terminal truncation lacking Ig-like domains 1 to 3) (Homo sapiens, UniProt Q13332, point mutant); assay: as above; details: one partner purified
T6 construct: human PTPRS isoform 1, N-terminal truncation lacking Ig-like domains 1 to 3, obtained from WT hPTPRS-HA by site-directed mutagenesis; source: HEK293T, transfected, in RIPA lysate; not shown: HA, C-terminal, kept

[7] = biological target: T3, 6xHis-tagged hPTPRS Fn9 (residues …); assay: BLI
[8] = biological target: T1, C-terminally 6xHis tagged mouse PTPRS …; assay: BLI
[9] = biological target: T7, 6xHis-tagged hPTPRS Fn9 (residues 1117-1270) (Homo sapiens, UniProt Q13332); assay: BLI; His-tagged ligand (mPTPRS ECD or hPTPRS Fn9) immobilised on anti-6xHis probes at 100 to 200 nM; antibodies or scFv-Fc fusions as analytes; Gator K buffer (0.02% BSA, 0.002% Tween-20 in PBS, pH 7.4), 37 °C; biphasic (2:1) association model; details: both partners purified
T7 construct: human PTPRS isoform 1 (Q13332), fibronectin type III-like domain 9, residues 1117-1270, amplified from WT hPTPRS and subcloned into pHLsec; the printed primers encode a start at TAFNLLN and an end at PFQLDN (translated from the primers); also called hPTPRS Fn9His; Fn9 fragment of PTPRS; source: HEK293T, transiently transfected, supernatant

[10] = biological target: T5, WT human PTPRS (hPTPRS) isoform 1 with …; assay: proximity ligation; purified antibody, scFv-Fc or Fc decoy added for 30 min to the co-transfected HEK293T cells before the PLA; read-out is the loss of the PLA signal of the tagged pair; details: one partner purified
[11] = biological target: T1, C-terminally 6xHis tagged mouse PTPRS …; assay: BLI

T5 sequence (Q13332 30-1948): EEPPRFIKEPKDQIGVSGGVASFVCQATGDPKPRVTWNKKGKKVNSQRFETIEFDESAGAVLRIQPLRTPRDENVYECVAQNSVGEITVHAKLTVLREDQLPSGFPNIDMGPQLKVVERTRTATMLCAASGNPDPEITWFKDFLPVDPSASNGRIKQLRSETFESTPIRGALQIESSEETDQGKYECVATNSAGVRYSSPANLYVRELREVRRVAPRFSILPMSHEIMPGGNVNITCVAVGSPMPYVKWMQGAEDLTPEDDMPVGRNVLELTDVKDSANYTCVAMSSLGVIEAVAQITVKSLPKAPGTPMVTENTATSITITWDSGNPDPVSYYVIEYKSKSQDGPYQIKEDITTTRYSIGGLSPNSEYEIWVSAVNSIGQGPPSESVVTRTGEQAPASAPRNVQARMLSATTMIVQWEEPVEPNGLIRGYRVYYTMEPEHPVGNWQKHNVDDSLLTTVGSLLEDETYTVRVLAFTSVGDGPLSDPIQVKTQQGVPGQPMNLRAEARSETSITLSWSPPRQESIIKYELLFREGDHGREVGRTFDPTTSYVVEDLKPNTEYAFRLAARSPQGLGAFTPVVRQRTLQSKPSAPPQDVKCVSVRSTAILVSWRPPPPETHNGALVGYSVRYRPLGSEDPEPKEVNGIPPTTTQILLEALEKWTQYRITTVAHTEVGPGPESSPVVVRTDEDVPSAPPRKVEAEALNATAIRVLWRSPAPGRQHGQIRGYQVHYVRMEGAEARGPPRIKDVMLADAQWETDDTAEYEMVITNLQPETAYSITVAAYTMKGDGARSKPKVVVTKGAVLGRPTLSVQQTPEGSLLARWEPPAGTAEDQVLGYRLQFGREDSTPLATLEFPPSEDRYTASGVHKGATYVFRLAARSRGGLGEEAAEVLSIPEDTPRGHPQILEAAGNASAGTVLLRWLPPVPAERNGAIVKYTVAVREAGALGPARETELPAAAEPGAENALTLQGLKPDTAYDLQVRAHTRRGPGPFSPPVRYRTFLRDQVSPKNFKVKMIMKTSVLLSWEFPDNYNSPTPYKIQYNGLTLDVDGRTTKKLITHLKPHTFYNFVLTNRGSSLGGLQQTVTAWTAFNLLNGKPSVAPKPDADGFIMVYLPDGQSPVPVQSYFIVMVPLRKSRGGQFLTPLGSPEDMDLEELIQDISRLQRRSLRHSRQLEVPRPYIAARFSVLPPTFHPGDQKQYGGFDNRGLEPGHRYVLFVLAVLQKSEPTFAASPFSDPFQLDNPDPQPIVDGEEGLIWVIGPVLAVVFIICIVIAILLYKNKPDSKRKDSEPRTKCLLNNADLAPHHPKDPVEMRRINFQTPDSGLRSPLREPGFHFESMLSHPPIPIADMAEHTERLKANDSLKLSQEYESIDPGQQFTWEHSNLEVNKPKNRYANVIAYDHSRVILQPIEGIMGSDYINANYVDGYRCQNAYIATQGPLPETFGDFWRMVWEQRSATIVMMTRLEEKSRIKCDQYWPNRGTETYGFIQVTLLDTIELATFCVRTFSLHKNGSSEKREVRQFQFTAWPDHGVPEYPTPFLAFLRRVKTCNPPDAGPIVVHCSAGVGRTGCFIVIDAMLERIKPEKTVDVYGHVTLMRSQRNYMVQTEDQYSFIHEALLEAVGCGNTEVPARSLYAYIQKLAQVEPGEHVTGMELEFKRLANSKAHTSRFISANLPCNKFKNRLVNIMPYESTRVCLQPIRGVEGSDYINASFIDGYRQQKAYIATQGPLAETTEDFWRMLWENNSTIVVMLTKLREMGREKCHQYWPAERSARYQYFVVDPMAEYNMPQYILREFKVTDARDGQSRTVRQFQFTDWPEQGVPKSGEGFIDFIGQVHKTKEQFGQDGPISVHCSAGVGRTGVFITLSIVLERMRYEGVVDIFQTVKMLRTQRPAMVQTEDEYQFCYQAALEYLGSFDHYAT

B1: 22H8^IgG2b (22H8 variable regions on mouse IgG2b/κ constant regions) (antibody, V domains shown)
VH: QVQLQQSGAELARPGASVKLSCKASGYTFTSYWMQWVKQRPGQGLEWIGAIYPGDGDTRYTQKFKGKATLTADKSSSTAYMQLSSLASEDSAVYYCARRIYYGYYYAMDYWGQGTSVTVSS
VL: DIVLTQSPASLAVSLGQRATISCKASQSVDYDGDSYMNWYQQKPGQPPKLLIYAASNLESGIPARFSGSGSGTDFTLNIHPVEEEDAATYYCQQSNEDPLTFGAGTKLELK
notes: as the VH of m3 (22H8); constant region of the mouse IgG2b heavy chain (entire constant region swapped); as the VL of m3 (22H8); constant region of the mouse κ light chain; IgG2b/κ form of 22H8; source: production contracted to Viva Biotech
- koff [1]: 0.06 s⁻¹
- Kd [2]: 38.2 nM

B2: 22H8 (mouse monoclonal antibody, IgG1/κ) (antibody, V domains shown)
VH: QVQLQQSGAELARPGASVKLSCKASGYTFTSYWMQWVKQRPGQGLEWIGAIYPGDGDTRYTQKFKGKATLTADKSSSTAYMQLSSLASEDSAVYYCARRIYYGYYYAMDYWGQGTSVTVSS
VL: DIVLTQSPASLAVSLGQRATISCKASQSVDYDGDSYMNWYQQKPGQPPKLLIYAASNLESGIPARFSGSGSGTDFTLNIHPVEEEDAATYYCQQSNEDPLTFGAGTKLELK
notes: VH of 22H8; constant region of the mouse IgG1 heavy chain; VL of 22H8; constant region of the mouse κ light chain; IgG1/κ; source: production contracted to Viva Biotech
- koff [3]: 0.009 s⁻¹
- binding result [4]: binds
- binding result [5]: binds
- binding result [6]: binds
- Kd [7]: 17.6 nM
- koff [8]: 0.002 s⁻¹
- Kd [2]: 13.2 ± 3.74 nM
- binding result [9]: binds

B3: 22H8^HL-scFv-Fc (VH-linker-VL scFv of 22H8 fused to human IgG1 Fc) (scFv, V domains shown)
VH: QVQLQQSGAELARPGASVKLSCKASGYTFTSYWMQWVKQRPGQGLEWIGAIYPGDGDTRYTQKFKGKATLTADKSSSTAYMQLSSLASEDSAVYYCARRIYYGYYYAMDYWGQGTSVTVSS
VL: DIVLTQSPASLAVSLGQRATISCKASQSVDYDGDSYMNWYQQKPGQPPKLLIYAASNLESGIPARFSGSGSGTDFTLNIHPVEEEDAATYYCQQSNEDPLTFGAGTKLELK
notes: as the VH of m3 (22H8); linker between VH and VL; as the VL of m3 (22H8); ORF synthesized by Genscript and subcloned into pHLsec as a C-terminal hFc fusion; also called 22H8-Fc HL; source: HEK293T, transiently transfected, supernatant; purified (Protein A); not shown: Fc (human IgG1), C-terminal, kept
- koff [3]: 0.0056 s⁻¹
- binding result [10]: binds
- Kd [7]: 2.65 nM
- binding result [9]: binds

B4: 49F2 (mouse monoclonal antibody, IgG1/κ) (antibody, V domains shown)
VH: EVQLVESGGDLVKPGGSLKLSCAASGFIFSSYGMSWVRQTPDKRLEWVATISSGGSDTYYPDSVKGRFTISRDNANNTLYLQMSSLKSEDTAMYYCARQVYYGLYWYFDVWGAGTTVTVSS
VL: DIVMTQSHKFMSTSVGDRVSIICKASQDVNTAVAWYQQKPGQSPKLLIYSASYRYTGVPDRFTGSGSGTDFTFTISSVQAEDLAIYYCQQHYSTPYTFGGGTKLEIK
notes: VH of 49F2; constant region of the mouse IgG1 heavy chain; VL of 49F2; constant region of the mouse κ light chain; IgG1/κ; source: production contracted to Viva Biotech
- binding result [4]: binds
- binding result [5]: binds
- binding result [6]: binds
- koff [8]: 0.005 s⁻¹
- Kd [2]: 25.7 ± 9.66 nM

B5: 13G5^IgG1 (13G5 variable regions on mouse IgG1/κ constant regions) (antibody, V domains shown)
VH: EVKLVESGGGLVQPGGSLKLSCATSGFTFSDYYMYWVRQTPEKRLEWVAYISNGGGSTYYPDTVKGRFTISRDNAKNTLYLQMSRLKSEDTAMYYCARHVYYGRNYAMDYWGQGTSVTVSS
VL: DIQMTQTTSSLSASLGDRVTISCRASQDISNYLNWYQQKPDGTVKLLIYYTSRLHSGVPSRFSGSGSGTDYSLTISNLEQEDIATYFCQQGNTLPYTFGGGTKLEIK
- koff [1]: 0.003 s⁻¹
- Kd [11]: 16.5 nM

B6: 13G5^HL-scFv-Fc (VH-linker-VL scFv of 13G5 fused to human IgG1 Fc) (scFv, V domains shown)
VH: EVKLVESGGGLVQPGGSLKLSCATSGFTFSDYYMYWVRQTPEKRLEWVAYISNGGGSTYYPDTVKGRFTISRDNAKNTLYLQMSRLKSEDTAMYYCARHVYYGRNYAMDYWGQGTSVTVSS
VL: DIQMTQTTSSLSASLGDRVTISCRASQDISNYLNWYQQKPDGTVKLLIYYTSRLHSGVPSRFSGSGSGTDYSLTISNLEQEDIATYFCQQGNTLPYTFGGGTKLEIK
- koff [3]: 0.00016 s⁻¹
- Kd [7]: 0.28 nM
